Test results published in US20100015637A1 (AbbVie / Abbott, published 2010).
Blank lines part the entries; values can stand above or below the molecule they belong to.

Columns and labels:
[1] = biological target: human PlGF-1 comprising amino acids 1-137 produced in human embryonic kidney cells (human) (UniProt P49763); test: Format 3 Quantikine ELISA, capture MAb264, detection Pb264; sFlt-1 9200 pmol/L (ratio 300)
[2] = biological target: human PlGF-1 comprising amino acids 1-137 produced in human embryonic kidney cells (human) (UniProt P49763); test: Format 3 Quantikine ELISA, capture MAb264, detection Pb264; sFlt-1 3067 pmol/L (ratio 100)
[3] = biological target: human PlGF-1 comprising amino acids 1-137 produced in human embryonic kidney cells (human) (UniProt P49763); test: Format 2 …, capture MAb264, detection Pb264; sFlt-1 920 pmol/L (ratio 30)
[4] = biological target: human PlGF-1 comprising amino acids 1-137 produced in human embryonic kidney cells (human) (UniProt P49763); test: Format 3 Quantikine ELISA, capture MAb264, detection Pb264; sFlt-1 920 pmol/L (ratio 30)
[5] = biological target: recombinant human PlGF-1 (comprising amino acids 1-131) expressed in E. coli (R&D Systems) (human) (UniProt P49763); test: … sandwich, capture MAb255, detection MAb826; antigen 60 pg/mL
[6] = biological target: recombinant human PlGF-1 (comprising amino acids 1-131) expressed in E. coli (R&D Systems) (human) (UniProt P49763); test: … sandwich, capture MAb255, detection pAb264; antigen 1500 pg/mL
[7] = biological target: T1, human PlGF-1 comprising amino acids 1-137 produced in human embryonic kidney cells (human, UniProt P49763 19-221); test: … sandwich, capture MAb255, detection MAb826; antigen 750 pg/mL
T1 construct: Mature human PlGF-1 with 6xHis tag; also called HEK (1-137); full length HEK human PlGF-1 (1-137)
T1 sequence: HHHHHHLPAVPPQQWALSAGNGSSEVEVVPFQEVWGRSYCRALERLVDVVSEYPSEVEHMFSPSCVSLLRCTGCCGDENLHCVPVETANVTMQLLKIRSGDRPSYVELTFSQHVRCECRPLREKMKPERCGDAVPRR
How it was run: (§1)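 Values are chemiluminescent relative light units (RLU) from a sandwich immunoassay of human PlGF-1 antigen preparations, some of them recombinant forms made in CHO cells. Antigen levels ran from 0 to 1500 pg/mL. Capture was by a monoclonal anti-human PlGF-1 antibody bound to magnetic microparticles, and detection was by an acridinium ester-labeled monoclonal anti-human PlGF-1 antibody.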

[8] = biological target: T2, CHO human PlGF-1 comprising amino acids 1-137 (human PlGF-1-His (1-131), CHO 6305) (human, UniProt P49763 19-221, N-glycans at N21 (completely glycosylated) and N89 (partially glycosylated)); test: as above
T2 construct: Mature human PlGF-1 with 6xHis tag (137 amino acids); also called CHO (1-137)
T2 sequence: T1 sequence
How it was run: as §1

[9] = biological target: T3, CHO human PlGF-1 fragment (comprising amino acids 17-131; ATCC PTA-8540) (human, UniProt P49763 35-221); test: as above
T3 sequence: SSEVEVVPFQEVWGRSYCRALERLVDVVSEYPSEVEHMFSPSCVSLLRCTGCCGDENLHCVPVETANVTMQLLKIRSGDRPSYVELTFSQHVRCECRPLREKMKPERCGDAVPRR
How it was run: as §1

[10] = biological target: recombinant human PlGF-1 (comprising amino acids 1-131) expressed in E. coli (R&D Systems) (human) (UniProt P49763); test: … sandwich, capture MAb255, detection MAb826; antigen 250 pg/mL
[11] = biological target: T4, human PlGF-1 fragment (comprising amino acids 17-131) produced in human embryonic kidney cells (human, UniProt P49763 35-221); test: … sandwich, capture MAb255, detection pAb264; antigen 0 pg/mL (blank)
T4 sequence: T3 sequence

[12] = biological target: T1, human PlGF-1 comprising amino acids …; test: as above
[13] = biological target: T2, CHO human PlGF-1 comprising amino acids …; test: as above
[14] = biological target: T3, CHO human PlGF-1 fragment (comprising …); test: as above
[15] = biological target: recombinant human PlGF-1 (comprising amino acids 1-131) expressed in E. coli (R&D Systems) (human) (UniProt P49763); test: … sandwich, capture MAb255, detection MAb826; antigen 750 pg/mL
[16] = biological target: recombinant human PlGF-1 (comprising amino acids 1-131) expressed in E. coli (R&D Systems) (human) (UniProt P49763); test: … sandwich, capture MAb255, detection pAb264; antigen 15 pg/mL
[17] = biological target: recombinant human PlGF-1 (comprising amino acids 1-131) expressed in E. coli (R&D Systems) (human) (UniProt P49763); test: … sandwich, capture MAb826, detection pAb264; antigen 15 pg/mL
[18] = biological target: recombinant human PlGF-1 (comprising amino acids 1-131) expressed in E. coli (R&D Systems) (human) (UniProt P49763); test: … sandwich, capture MAb826, detection pAb264; antigen 1500 pg/mL
[19] = biological target: recombinant human PlGF-1 (comprising amino acids 1-131) expressed in E. coli (R&D Systems) (human) (UniProt P49763); test: … sandwich, capture MAb826, detection pAb264; antigen 0 pg/mL (blank)

% Inhibition [1]: 82.2% | PlGF-1 Measured [1]: 154 pg/mL | % Inhibition [2]: 80.9% | PlGF-1 Measured [2]: 166 pg/mL | % Inhibition [3]: 91.3% | PlGF-1 Measured [3]: 68.2 pg/mL | % Inhibition [4]: 45% | PlGF-1 Measured [4]: 476 pg/mL
Molecule: native sFlt-1, isolated from human placental tissue (from UniProt P17948 27-687) (receptor)

RLU [5]: 83200 RLU | RLU [6]: 2.19e+06 RLU | RLU [7]: 890000 RLU | RLU [8]: 400000 RLU | RLU [9]: 395000 RLU | RLU [10]: 298000 RLU | RLU [11]: 14200 RLU | RLU [12]: 14200 RLU | RLU [13]: 14500 RLU | RLU [14]: 14400 RLU | RLU [15]: 780000 RLU | RLU [16]: 47200 RLU
B1: monoclonal antibody 1-255-713 (produced by murine hybridoma cell line 1-255-713, ATCC PTA-8536) (antibody, mouse IgG2a, V domains shown)
VH: QVHLQQSGAELMKPGASVKISCKATGYTFSSYWIEWVKQRPGHGLEWIGEILPGSVSNNFNEKFKDKATLTADPSSNTAYIQVSSLTSEDSAVYYCARSTGFYYGGNYFDHWGQGTTLAVSS
VL: DVVMTQTPLSLPVSPGDQASISCRSSQSLVHSNGHTYLHWYLQKPGQSPKLLIYKVSNRFSGVPDRVSGSGSGTDFTLKISRVEAEDLGVYFCSQSTHVPPTFGGGTKLEIKR
notes: also called MAb255

RLU [17]: 19600 RLU | RLU [18]: 1.08e+06 RLU | RLU [19]: 6410 RLU
B2: monoclonal antibody 2-826-335 (produced by murine hybridoma cell line 2-826-335, ATCC PTA-8539) (antibody, mouse IgG1, V domains shown)
VH: QVQLKQSGPGLVQPSQSLSITCTVSGFSLTTYGIHWVRQSPGKGLEWLGVMWSGGDTDYDAAFISRLSISKDNSKSQVFFKMNSLQANDTGIYYCARYRFYGMDYWGQGTSVTVSS
VL: AIQMTQSSSSFSVSLGDRVTITCKASEDIYNRFAWYQQKPGNAPRLLISGAASLEAGVPSRFSGSGSGQDYTLSITSLQTEDVATYYCQQYWSTPWTFGGGTKLEIKR
notes: also called MAb826
